According to the nanobody polyreactivity screen of Harvey et al. (2022):

Assay: yeast display, Sf9 membrane polyspecificity reagent, FACS + sequencing; frameworks hold sequencing errors
Outline: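 Nanobodies came from a synthetic yeast display library in Saccharomyces cerevisiae BJ5465, induced with galactose for 36–48 hours and stained for 1 hour at 4 °C with 10% biotinylated, detergent-solubilized Sf9 membrane reagent. Cells were enriched on streptavidin microbeads and then FACS-sorted, with low and high (top ~1%) gates set on anti-HA fluorescence for expression and streptavidin fluorescence for reagent binding. Each polyreactivity label reflects the gate a clone came from. Genes were amplified by colony PCR, sequenced by MiSeq 2 × 250 and filtered by CDR length.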

| Sequence | polyreactivity (PSR sort gate) |
| --- | --- |
| QDQLVESRGVLVQAGGSLRLSCAASGSTFEANAMGWYRQAPGKERELVAVITWTGGSTYYADSVKGRFTISRDNAKNTVYLQMNSLKPEDTAVYYCAADGVVPGRFFWPAHEYDYWGQGTQVTVSS | low polyreactivity |
| QVQLVGVRGRLVQAGGSLRLSCAASGRTIYAYAMGWNRQAPRKERELVATITSGGSTNYADSVKGRFTISRDNAMNTFYLLMNSLKPEDTAVYYCGAGPRGYKKYDYWGHGTQVTVSS | low polyreactivity |
| QVQLVESGGGLVQAGGSLRFSCADSGFTFRTYAMGWYIQAPGKERELVATIRRAGSTYYADSVKGRFTISRDNAKNTVYLQMNSLKPEDTAVYYCAATHYSFSWGYDYWGQGTQVTVSS | high polyreactivity |
| QVQLVESGGGLVQAGGSLRLSCAASGSIFIYNAMGWYRQAPGKERELVAAISSSGGSTYYADSVKGRFTISRDYAKNTVYLQLNSLKPEDTAVYYCAARTYYVRGLGGRPGMDYWGQGTHVTVSS | low polyreactivity |
| QVQLVESGGGLVQAGGSLRLSCAASGRILGFYAMGWYRQAPGKERELVARINWSGTRTYYADSVKGRFTISRDNAKNTVYLQMNSLKPEDTAVYYCAARRYYPYDYWGQGTQVTVSS | high polyreactivity |
| QVQLVESGGGLFQAGGSLRLSCAASGFIFSHYAMGWYRQAPGNDREFVATISKRGGSTTYADSVKGRFTISRDNAKNTVYFQMNSLKPVDTAVYDFAADYYPASAGFDYWGQGTQVTVSS | high polyreactivity |
| QVQLVESGGGLVQAGGSLRLSCAASGRIFPRYAMGWYRQAPGKERELVATISSGGSTYYADSVKGRFTISRDNAKNTVYLQMNSLKPEDTAVYYCAARKRPYTVINGMDYWGQGTQVTVSS | low polyreactivity |
| QVQHVESRGGLVQAGGSLRLSCAASGRTFFNNVMGWYRQAPGKERELVAAISKSGTRTYYADSVKGRFTISRDNAKNTVYLQMNSLKPEDTAVYYCATGQYLRTSRYYYWGQGTQVTVSS | high polyreactivity |
| QVQLVESGGGLVQAGGILRLSCAASVRIFGVYAMGWYRQAPGKERELVAAITSGGSTTYADSVKGRFTISRDNAKNNVYLQMNSLKQEDTAVYYCNKEPQPFFLYGYWGQGTQVTVSS | low polyreactivity |
| QVQLVESGGGLVQAGGSLRLICADSGRIFRYNSRGWYRQAPAKERELVASISTGGSSTYYADSVKGRFTISRDNAKNTVYLQMNSLKPEYSAFYYCAATPYSYSARSYGPIYRYDYWGQGTQVTVSS | high polyreactivity |
| QVQLVESGGGLVQAGGSLRLSCAASGNTFHPYAMGWYRQAPGKVRELVAAITKSGGSTYYADSVKGRFTISRDNAKNTVYLQMNSLKPEDTAVYYCATDGYEYTDYGSSGYDYWGQGTQVTVSS | low polyreactivity |
| QVQLVESGGGLVQAGGSLRLSCAASGFTFPRNVMGWYRQAPGKERELVAAISRSGSRTSYADSVKGRFTISRDNAKNTVYLQMNSVKPEDTAVYYCATSSGVGGYAAYYYWGQGTQVTVSS | high polyreactivity |
| QVQLVESGGGLVQAGGSLRLSCAASGFTFRNNAMGWYRQAPGKERELVAAISKRGSSTYYADSVKGRFTISRDNAKNTVYLQMNSLKPEDTAVYYCAASWLGASGIRYDYWGQGTQVTVSS | high polyreactivity |
| QVQLVESGGGLVQAGGSHRLSCAASGRTFYSYPMGWYRQAPGKEREIVAAIHWSGTTTYADSVKGRFTISRDNAKNTVYLEMNSLKPDATAVYYCAADRVSYIGAGWFDYWGQGTQVTVSS | high polyreactivity |
| QVQLVESGGGLVQAGGSLRLSCAACGSTFGSYAMGWYRQAPGKERELVADITSGGSTYYADSVKGRFTISRDNAKNTVYLQMNSLKPEDTAVYYCAVEGWWDDYKSGAGEFNYWGQGTQVTVSS | low polyreactivity |
| QVQLVESGGGLVQAGGSLRLSCAASGSIFDLNTMGWYRQAPGKERELVAAITWGGGSTYYADSVKGRFTISRDNAKNTVYLQMNSLKPEDTAVYYCNVTWSWGEKGRKAYGYWGQGTQVTVSS | low polyreactivity |
| QVQLVESGGGLVQAGGSLRLSCAASGSIFSGYVMGWSRQAPGKERELVAAISGSGGSTYYADSVKGRFTISRDNAKNTVYLQMNSLNPEDTAVYYCNKGLSRSYWWVDYWGQGTQVTVSS | low polyreactivity |
| QVQLVESGGGLVQAGGSLRLSCAASGITFARYAMGLYIQAPGKERELVAAISKRGGRKYYADSVKGRFTISRDNAKNTVYLQMNSLKPEDTAVYYCATDYYVSTDYNLWGQGTQVTVSS | high polyreactivity |
| QVQLVESGGGLVQAGGSLRLSCAASGRTLWSYVMGWYRQAPGKERELVAAITSGGTTYYADSVKGRFTISRDKAKNTVYLQMNSLKPEDTAVYYCAAGKYYLRLLPYGYWGQGTQVTVSS | high polyreactivity |
| QVQLVETGGGLVQAGGSLRLSCAASGFTFTVYATGWYRQAPGKERELVAAIRWSGGSTSYADSVKRRFTISRDNAKNTVYLQMNSLKPEDTAVYYCNARISDAHYQSNYFLVLYDYWGQGTQVTVSS | low polyreactivity |
| QVQLVESGGGLVQAGGSLRLICAASGSTFSENTMGSYRPAPGKERELVAAISFSGASTYYADSVKGRFTISRDYAKKTVYLQLNSLKPEDTAVYYCRRFTSSPKLALGEYDYWGQGTQVTVSS | low polyreactivity |
| QVQLVESGGGLVQAGGSLRLICAASGLTFKQYVMGWYRQAPGKERELVAAIHNGTSTYYADSVKGRFTISRDNAKNTVYLQMNSLKPEDTAVYYCAADGLGFNTYDYWGQGTQVTVSS | low polyreactivity |

| Sequence | polyreactivity (PSR sort gate) |
| --- | --- |
| QVQLVESGGGLVQAGGSLRLSCAASGSIFDLYVMGWYRQAPGKERELVAAISLIGGSTSYADSVKGRFTISRDNEKNTVYLHRKSLKPEDTAVYYCAVEKFFRAEYDHWGLGTQVTVSS | low polyreactivity |
| QVQLVESGGGLVQAGGSLRLTCAASGSIFRVNAMGWYRQAPGKERELVAAISSGGSTHYADSVKGRFTMSRDNAKNTVYLLMNSLKPEDTAVYYCAVRGERRYIYDYWGQGTQVTVSS | high polyreactivity |
| QVQLVESGGGLVQAVGSLRLSCAASGRIFRHNAMGWYRQAPGKEWELVAAISGGGTTYYADSVKGRFTISRDNAKNTVYLQMNSLKPEDTAVYYCAARRRGSVGVGYAYAYYYWGQGTQVTVSS | high polyreactivity |
| QVQLVESGGGLVQAGGSLRLSCAASGRIFGNYAMGWYRQAPGKERELVAAISGGGSTYYADSVKGRFTISRDNAKNTVYLQMKSLKPEDTAVYYCAARFLWSVFGRKGGYWGQGTQVTVSS | low polyreactivity |
| QVQLVESGGGLVQAAGSLRLSCAASGYIFQYYAMGWYRQAPGKERELVAAITGGGSTKYADSVKGRFTISRDNAKNTVYLQMNSLKPEDTAVYYCAASLWYRISKYDYWGQGTQVTVSS | high polyreactivity |
| QVQLVESGGGLVQAGGSLRLSCAASGRTFYKNAMGWYRQAPGKERELVAAISQRGGGTYYADSVKGRFTISRDNAKNTVYLQMNSLKPEDTAVYYCNAPLVFIHGSDYWGQGTQVTVSS | high polyreactivity |
| QVQLVESGGGIVQAGGSLRLSCAASGFIFSYYVMGWYRQAPGKEREFVAAITYSGTYTYYADSVKGRFTISRDNAKNTVYLQMNSLKPEDTAVYYCAAYSPRYNAHDYWGQGTQVTVSS | high polyreactivity |
| QVQLVESGGGLVQAGGSLRLSCAASGRTFGAYSMGWYRQAPGKERELVASISRSGGSTYYADSVKGRFTISRDNAKNTVYLQMNSLKPEETAVYYCAARVYRYGAMDYWGQGTQVTVSS | high polyreactivity |
| QVQLVESGGGLVQAGGSLRLSCAASGSTFWYNAMGWYRQAPGKERELVAAISRSGATTYYADSVKGRFTISRDNAKNTVYLQMNSLKPEDTAVYYCNAVISPSSYVRNSDYWGQGTQVTVSS | low polyreactivity |
| QVQLVESGGGLVQAGGSLRLSCAASGFTLYSNTMGWYRQATGKERELVAAINYSGGSTYYADSVKGRFTISRDNAKNTVYLQMNSLKPEDTPVYYCATDLHWLVTKYGYWGQGTQVTVSS | low polyreactivity |
| QVQLVESGGGLVQAGGSLRLSCAASGSIFTGYAMGWYRQAPGKERELVAAISASGTRTYYADSVKGRFTISRDNAKNTVYLQMNSLKPEDTAVYYCARDSLQVFYPYASDDYWGQGTQVTVSS | low polyreactivity |
| QLQLVESGGGLVQAGGSLRLSCAASGRTFVYNVMGWYRQAPGKERELVAAISSGGSTNYADSVKGRFTNSRDNAKNTVYLQMNRLKPEDSAVYYCNAGTLNYRYRWGHYYDSWGQGTQVTVSS | low polyreactivity |
| QVQLVESGGGLVQAGGSLRLSCAASGSIFHPYTMGWYRQAPGKERELVAGISQSSDSTYYADSVKGRFTISRDNAKNTVYLQMNSLKPEDTAVYYCNRDNDWPLSVVEVDYWGQGTQVTVSS | low polyreactivity |
| QVQLVESGGCLVQAGGSLRLSCAASGYTLATYAMGWYRQAPGKERELVAAITSTGGTTYYADSVKGRFTISRDNAKNTVYLPMNSLKPEDTAVYYCNAAAALYKRYDYWGQGTQVTVSS | high polyreactivity |
| QVQLVESGGGLVQAGGSLRLSCAASGFTFTRYAMGWYRQAPGKERELVAAISWNSGSTYYADSVKGRFTISRDNAKNTVYLQMNSLKPEDTAVYYCAAAFLRVYYGYTGAFDYWGQGTQVTVSS | high polyreactivity |
| QVQLVESGGGLVQAGGSLRISCAASGFIFGTNAKGWYRQAPGKERELVAAINCRGGGTYYADSVKGRFTISRDNAKYTVYLEMNSLKPEDTAVYYCAASRFDYWGQGTQVTVSS | low polyreactivity |
| QVQLVESGGGLVQAGGSLRLSCAASGRIFYTNGMAWYRQAPGKERELVATIRSGDGRTYYADSVKGRFTISRDNAKNTVYLQMNSLKPEDTAVYYCNASRVVYRQAYLYGFDYWGQGTQVTVSS | low polyreactivity |
| QVQLVESGGGLVQAGGRLRLSCAASGLIFRTYTMVWYRQAPGKERELVATITRRGGTTYYADSVKGRFTISRDNAKNTVYLQMNSLKPEDTAVYYCAAKSAYHGLVGGYYYWGQGTQVTVSS | high polyreactivity |
| QVQLVESGGGLVQAGGSLRLSCAASGRILTYYAMGWYRQAPGKERELVAAISWRAGYTYYADSVKGRFTISRDNAKNTVYLQMNSLKPEDTAVYYCAAETSNRGRRYYYWGQGTQVTVSS | high polyreactivity |
| QVQLVESGGGLVQAGGSLRLSCAASGGIFGYYAMGWYRQAPGKERELVAAISYSGGSTYADSVKGRFTISRDNAKNTVYLQMNSLKPEDTAVFYCAARVSSVTRSGFGYWGQGTQVTVSS | high polyreactivity |
| QVQLVESGGGLVQAGGSLRLSCAASGIIFGYYAMGWYRQAPGKEREFVAAINYSGVSTYYADSVKGRFTISRDNAKNTVYLQMNSLKPEDTAVYSCAADFRIVVYGWGGSHMDYWGQGTQVTVSS | low polyreactivity |
